According to patent publication US20140308285A1 (Amgen, published 2014):

Legend:
[1] = biological target: T1, folate receptor 1 (FOLR1) on tumor cell lines (Cal-51, T47D) (human, UniProt P15328 25-234); test: cell-based or functional assay
[2] = biological target: T1, folate receptor 1 (FOLR1) on tumor cell …; test: cell-based or functional assay; remark: listed apart in the source

T1 sequence (P15328 25-234, stated change not applied): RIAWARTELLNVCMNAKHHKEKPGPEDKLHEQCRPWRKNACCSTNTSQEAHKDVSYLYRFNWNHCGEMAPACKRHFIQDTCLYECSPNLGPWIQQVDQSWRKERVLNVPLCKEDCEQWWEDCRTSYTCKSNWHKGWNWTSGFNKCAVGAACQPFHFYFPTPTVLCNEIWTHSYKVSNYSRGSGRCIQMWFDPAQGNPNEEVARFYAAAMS

B1: P136795.3 (bispecific antibody)
chain 1: EVQLVESGGGLVQPGGSLKLSCAASGFTFNSYAMNWVRQAPGKGLEWVARIRSKYNNYATYYADSVKGRFTISRDDSKNTAYLQMNNLKTEDTAVYYCVRHGNFGNSYVSWWAYWGQGTLVTVSSGGGGSGGGGSQSVLTQPPSVSEAPRQRVTISCSGSSSNIGNNAVNWYQQLPGKAPKLLIYYDDMLSSGVSDRFSGSKSGTSASLAISGLQSEDEADYYCAAWDDSLNGVVFGGGTKLTVLASTKGPSVFPLAPCSRSTSESTAALGCLVKDYFPEPVTVSWNSGALTSGVHTFPAVLQSSGLYSLSSVVTVPSSNFGTQTYTCNVDHKPSNTKVDKTVGGGGSAAAEPKSSDKTHTCPPCPAPEAAGGPSVFLFPPKPKDTLMISRTPEVTCVVVDVSHEDPEVKFNWYVDGVEVHNAKTKPREEQYNSTYRVVSVLTVLHQDWLNGKEYKCKVSNKALPAPIEKTISKAKGQPREPQVYTLPPSREEMTKNQVSLTCLVKGFYPSDIAVEWESNGQPENNYDTTPPVLDSDGSFFLYSDLTVDKSRWQQGNVFSCSVMHEALHNHYTQKSLSLSPGK
chain 2: not shown
Q: How did the “EC50 (pM) for cytokine release, IFN-γ, in presence of T47D cells” value [1] turn out when B1 was run?
A: 27.1 pM

Q: What about the “EC50 (pM) for cytokine release, IL-2, in presence of T47D cells” value [1] of the same binder?
A: 20.3 pM

Q: And the “EC50 (pM) for cytokine release, IL-10, in presence of T47D cells” value [1]?
A: 28.3 pM

Q: And the “EC50 (pM) for cytokine release, IL-13, in presence of T47D cells” value [1]?
A: 27.8 pM

Q: What about the “EC50 (pM) for cytokine release, TNF-α, in presence of T47D cells” value [1] of the same binder?
A: 12.5 pM

Q: What about the “EC50 of specific lysis, Cal-51 cells (printed Cal-61) with human T cells” value [2] of the same binder?
A: 1.21 pM

Q: What about the “EC50 of specific lysis, T47D cells with human T cells” value [2] of the same binder?
A: 1.26 pM
